This passage reports Kd and stoichiometry N results from PMC8339350.

As usually defined, the Kd is the equilibrium constant for the complex coming apart. As a reminder, the stoichiometry N is a count of units in the complex or per binding partner.

One experiment concerns the target AKAP18 (Homo sapiens) (UniProt Q9P0M2). To be noted: cited from earlier work.
The next experiment addresses GST-AKAP18α (human). In words: BLI; Octet RED96; anti-GST probes loaded with GST protein at 200 nM; room temperature; 50 mM Tris HCl, 200 mM NaCl, 5 mM DTT, 0.1% BSA, pH 8.0; steady-state analysis for KD. A general note: BLI is a label-free optical method that tracks binding on a fibre tip over time.
The target in experiment [1] is full-length SPA17 (sperm autoantigenic protein 17), human (human) (UniProt Q15506). Nature of the experiment: SEC-MALS; Wyatt system on Superdex 200 Increase 10/300; 20 mM Tris, pH 8, 200 mM NaCl, 5 mM DTT; 0.5 ml/min.

Values joined by “and” are separate entries in the source; they are usually repeats but may differ in a detail not shown here. Identical values can stand only once.

Chain of RIIα (P13861 2-404): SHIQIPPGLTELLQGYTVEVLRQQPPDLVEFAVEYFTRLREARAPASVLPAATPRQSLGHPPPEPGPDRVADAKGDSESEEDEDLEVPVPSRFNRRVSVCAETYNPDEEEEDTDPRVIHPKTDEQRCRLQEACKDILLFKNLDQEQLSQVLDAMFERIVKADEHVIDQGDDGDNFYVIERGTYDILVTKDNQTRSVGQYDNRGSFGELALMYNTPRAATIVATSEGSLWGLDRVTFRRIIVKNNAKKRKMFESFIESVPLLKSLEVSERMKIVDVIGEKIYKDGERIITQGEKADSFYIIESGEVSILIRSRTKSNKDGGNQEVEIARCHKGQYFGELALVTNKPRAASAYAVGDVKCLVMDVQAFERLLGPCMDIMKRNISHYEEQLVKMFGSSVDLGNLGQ

As to RIIα (from UniProt P13861), in the experiment with AKAP18 (Homo sapiens), the equilibrium dissociation constant (Kd) is 0.031 µM.

The substance “SPA17 1 to 75-ROPN1L 1 to 75 heterodimer (from UniProt Q15506 1-75; Q96C74 1-75) (complex)” displayed a Kd with GST-AKAP18α (human) of 0.082 µM. For “full-length SPA17 (sperm autoantigenic protein 17), human (from UniProt Q15506 1-151) (natural protein)”, the stoichiometry N in experiment [1] was 4 and 2.
